Measurements reported in patent US20240209062A1 (INVETX, published 2024).

Target: T1, feline FcRn (soluble portion of large subunit p51 isoform X1 with C-terminal 6xHis-tag, co-expressed with … (feline, UniProt Q5MGS7 21-118))
T1 construct: Heterodimer made by co-expression in CHO cells, purified on HisTrap FF; also called FcRn complex
Experiment: SPR, Biacore T200, IgG captured on Protein L chip, feline FcRn flowed over, pH 5.9, 1:1 fit
Procedure: The feline FcRn binding experiments at pH 5.9 were completed on a BIACORE™ T200 instrument. A Series S Protein L Sensor chip (Cytiva, Cat. No. BR29205137) was used to capture the antibody variants via the kappa (κ) light chain. The feline variants were captured onto the protein L chip at a flow rate of 10 μL/min for 60 seconds. 1×PBX-P+(Cytiva Cat 28995084) was adjusted to pH 5.9 for the running buffer. The feline FcRn was flowed over the sensor chip at 30 μL/min for 120 seconds contact time and 600 seconds dissociation time. Regeneration of the flow cells was completed by flowing over 10 mM glycine, pH 1.7 at 30 μL/min for 30 seconds. The data were evaluated by the BIACORE™T200 Evaluation software v3.2.1 by fitting to a 1:1 kinetic interaction model.

T1 sequence (chain, as listed by the source limits assumed, chain 1 of 2): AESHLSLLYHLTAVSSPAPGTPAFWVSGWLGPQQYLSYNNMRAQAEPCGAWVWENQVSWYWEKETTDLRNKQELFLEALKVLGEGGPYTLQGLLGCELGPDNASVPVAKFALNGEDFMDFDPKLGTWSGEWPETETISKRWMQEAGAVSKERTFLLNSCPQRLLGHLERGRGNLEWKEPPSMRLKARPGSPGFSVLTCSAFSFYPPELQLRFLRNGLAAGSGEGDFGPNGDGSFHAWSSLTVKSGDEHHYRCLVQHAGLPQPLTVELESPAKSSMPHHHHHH
T1 sequence (Q5MGS7 other isoform, or with tags, fused parts or gaps limits assumed, chain 2 of 2): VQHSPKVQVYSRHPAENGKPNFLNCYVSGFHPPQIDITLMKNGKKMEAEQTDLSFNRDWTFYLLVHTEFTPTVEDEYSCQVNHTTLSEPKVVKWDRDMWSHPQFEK

| Binder | Kd [µM] | koff [s⁻¹] | kon [M⁻¹ s⁻¹] |
| --- | --- | --- | --- |
| IgG with feline IgG1a Fc variant S252M, T286D (antibody, IgG1a constant domain with MALA mutations (M234A, L244A as printed); variable domains from WO 2023/97275) heavy: DVQLVESGGDLVKPGGSLRLTCVASGLSLTSDSMSWVRQAPGKGLQWVSTLWSNRGTYYTDSVKGRFTISKDNAENTLYLQMNNLKTEDTATYYCASIYYYEADYLHWYFDFWGQGALVTVSSASTTAPSVFPLAPSCGTTSGATVALACLVLGYFPEPVTVSWNSGALTSGVHTFPAVLQASGLYSLSSMVTVPSSRWLSDTFTCNVAHPPSNTKVDKTVRKTDHPPGPKPCDCPKCPPPEAAGGPSIFIFPPKPKDTLMISRTPEVTCLVVDLGPDDSDVQITWFVDNTQVYDAKTSPREEQFNSTYRVVSVLPILHQDWLKGKEFKCKVNSKSLPSPIERTISKAKGQPHEPQVYVLPPAQEELSRNKVSVTCLIKSFHPPDIAVEWEITGQPEPENNYRTTPPQLDSDGTYFVYSKLSVDRSHWQRGNTYTCSVSHEALHSHHTQKSLTQSPG light: EIQMTQSPTSLSASVGDRVTITCRASEGIANNLSWYQQTPGKAPKLLIYATSNLHSGVPSRFSGSGSGTDFTLTISSLQPEDFATYYCQQGFKWPLTFGGGTKLEITRSDAQPSVFLFQPSLDELHTGSASIVCILNDFYPKEVNVKWKVDGVVQNKGIQESTTEQNSKDSTYSLSSTLTMSSTEYQSHEKFSCEVTHKSLASTLVKSFNRSECQRE | 0.123 | 0.105 | 850000 |
| IgG with feline IgG1a Fc variant S252M, T286E (antibody, IgG1a constant domain with MALA mutations (M234A, L244A as printed); variable domains from WO 2023/97275) heavy: DVQLVESGGDLVKPGGSLRLTCVASGLSLTSDSMSWVRQAPGKGLQWVSTLWSNRGTYYTDSVKGRFTISKDNAENTLYLQMNNLKTEDTATYYCASIYYYEADYLHWYFDFWGQGALVTVSSASTTAPSVFPLAPSCGTTSGATVALACLVLGYFPEPVTVSWNSGALTSGVHTFPAVLQASGLYSLSSMVTVPSSRWLSDTFTCNVAHPPSNTKVDKTVRKTDHPPGPKPCDCPKCPPPEAAGGPSIFIFPPKPKDTLMISRTPEVTCLVVDLGPDDSDVQITWFVDNTQVYEAKTSPREEQFNSTYRVVSVLPILHQDWLKGKEFKCKVNSKSLPSPIERTISKAKGQPHEPQVYVLPPAQEELSRNKVSVTCLIKSFHPPDIAVEWEITGQPEPENNYRTTPPQLDSDGTYFVYSKLSVDRSHWQRGNTYTCSVSHEALHSHHTQKSLTQSPG light: EIQMTQSPTSLSASVGDRVTITCRASEGIANNLSWYQQTPGKAPKLLIYATSNLHSGVPSRFSGSGSGTDFTLTISSLQPEDFATYYCQQGFKWPLTFGGGTKLEITRSDAQPSVFLFQPSLDELHTGSASIVCILNDFYPKEVNVKWKVDGVVQNKGIQESTTEQNSKDSTYSLSSTLTMSSTEYQSHEKFSCEVTHKSLASTLVKSFNRSECQRE | 0.101 | 0.0719 | 715000 |
| IgG with feline IgG1a Fc variant S252Y, L309D (antibody, IgG1a constant domain with MALA mutations (M234A, L244A as printed); variable domains from WO 2023/97275) heavy: DVQLVESGGDLVKPGGSLRLTCVASGLSLTSDSMSWVRQAPGKGLQWVSTLWSNRGTYYTDSVKGRFTISKDNAENTLYLQMNNLKTEDTATYYCASIYYYEADYLHWYFDFWGQGALVTVSSASTTAPSVFPLAPSCGTTSGATVALACLVLGYFPEPVTVSWNSGALTSGVHTFPAVLQASGLYSLSSMVTVPSSRWLSDTFTCNVAHPPSNTKVDKTVRKTDHPPGPKPCDCPKCPPPEAAGGPSIFIFPPKPKDTLYISRTPEVTCLVVDLGPDDSDVQITWFVDNTQVYTAKTSPREEQFNSTYRVVSVLPIDHQDWLKGKEFKCKVNSKSLPSPIERTISKAKGQPHEPQVYVLPPAQEELSRNKVSVTCLIKSFHPPDIAVEWEITGQPEPENNYRTTPPQLDSDGTYFVYSKLSVDRSHWQRGNTYTCSVSHEALHSHHTQKSLTQSPG light: EIQMTQSPTSLSASVGDRVTITCRASEGIANNLSWYQQTPGKAPKLLIYATSNLHSGVPSRFSGSGSGTDFTLTISSLQPEDFATYYCQQGFKWPLTFGGGTKLEITRSDAQPSVFLFQPSLDELHTGSASIVCILNDFYPKEVNVKWKVDGVVQNKGIQESTTEQNSKDSTYSLSSTLTMSSTEYQSHEKFSCEVTHKSLASTLVKSFNRSECQRE | 0.0567 | 0.0284 | 502000 |
| IgG with feline IgG1a Fc variant S252Y, L309V (antibody, IgG1a constant domain with MALA mutations (M234A, L244A as printed); variable domains from WO 2023/97275) heavy: DVQLVESGGDLVKPGGSLRLTCVASGLSLTSDSMSWVRQAPGKGLQWVSTLWSNRGTYYTDSVKGRFTISKDNAENTLYLQMNNLKTEDTATYYCASIYYYEADYLHWYFDFWGQGALVTVSSASTTAPSVFPLAPSCGTTSGATVALACLVLGYFPEPVTVSWNSGALTSGVHTFPAVLQASGLYSLSSMVTVPSSRWLSDTFTCNVAHPPSNTKVDKTVRKTDHPPGPKPCDCPKCPPPEAAGGPSIFIFPPKPKDTLYISRTPEVTCLVVDLGPDDSDVQITWFVDNTQVYTAKTSPREEQFNSTYRVVSVLPIVHQDWLKGKEFKCKVNSKSLPSPIERTISKAKGQPHEPQVYVLPPAQEELSRNKVSVTCLIKSFHPPDIAVEWEITGQPEPENNYRTTPPQLDSDGTYFVYSKLSVDRSHWQRGNTYTCSVSHEALHSHHTQKSLTQSPG light: EIQMTQSPTSLSASVGDRVTITCRASEGIANNLSWYQQTPGKAPKLLIYATSNLHSGVPSRFSGSGSGTDFTLTISSLQPEDFATYYCQQGFKWPLTFGGGTKLEITRSDAQPSVFLFQPSLDELHTGSASIVCILNDFYPKEVNVKWKVDGVVQNKGIQESTTEQNSKDSTYSLSSTLTMSSTEYQSHEKFSCEVTHKSLASTLVKSFNRSECQRE | 0.0187 | 0.0139 | 747000 |
| IgG with feline IgG1a Fc variant S252Y (antibody, IgG1a constant domain with MALA mutations (M234A, L244A as printed); variable domains from WO 2023/97275) heavy: DVQLVESGGDLVKPGGSLRLTCVASGLSLTSDSMSWVRQAPGKGLQWVSTLWSNRGTYYTDSVKGRFTISKDNAENTLYLQMNNLKTEDTATYYCASIYYYEADYLHWYFDFWGQGALVTVSSASTTAPSVFPLAPSCGTTSGATVALACLVLGYFPEPVTVSWNSGALTSGVHTFPAVLQASGLYSLSSMVTVPSSRWLSDTFTCNVAHPPSNTKVDKTVRKTDHPPGPKPCDCPKCPPPEAAGGPSIFIFPPKPKDTLYISRTPEVTCLVVDLGPDDSDVQITWFVDNTQVYTAKTSPREEQFNSTYRVVSVLPILHQDWLKGKEFKCKVNSKSLPSPIERTISKAKGQPHEPQVYVLPPAQEELSRNKVSVTCLIKSFHPPDIAVEWEITGQPEPENNYRTTPPQLDSDGTYFVYSKLSVDRSHWQRGNTYTCSVSHEALHSHHTQKSLTQSPG light: EIQMTQSPTSLSASVGDRVTITCRASEGIANNLSWYQQTPGKAPKLLIYATSNLHSGVPSRFSGSGSGTDFTLTISSLQPEDFATYYCQQGFKWPLTFGGGTKLEITRSDAQPSVFLFQPSLDELHTGSASIVCILNDFYPKEVNVKWKVDGVVQNKGIQESTTEQNSKDSTYSLSSTLTMSSTEYQSHEKFSCEVTHKSLASTLVKSFNRSECQRE | 0.0361 | 0.0268 | 742000 |
| IgG with feline IgG1a Fc variant S252Y, I377L (antibody, Printed '1377L' read as I377L; IgG1a constant domain with MALA mutations (M234A, L244A as printed); variable domains from WO 2023/97275; also called S252Y, 1377L) heavy: DVQLVESGGDLVKPGGSLRLTCVASGLSLTSDSMSWVRQAPGKGLQWVSTLWSNRGTYYTDSVKGRFTISKDNAENTLYLQMNNLKTEDTATYYCASIYYYEADYLHWYFDFWGQGALVTVSSASTTAPSVFPLAPSCGTTSGATVALACLVLGYFPEPVTVSWNSGALTSGVHTFPAVLQASGLYSLSSMVTVPSSRWLSDTFTCNVAHPPSNTKVDKTVRKTDHPPGPKPCDCPKCPPPEAAGGPSIFIFPPKPKDTLYISRTPEVTCLVVDLGPDDSDVQITWFVDNTQVYTAKTSPREEQFNSTYRVVSVLPILHQDWLKGKEFKCKVNSKSLPSPIERTISKAKGQPHEPQVYVLPPAQEELSRNKVSVTCLIKSFHPPDLAVEWEITGQPEPENNYRTTPPQLDSDGTYFVYSKLSVDRSHWQRGNTYTCSVSHEALHSHHTQKSLTQSPG light: EIQMTQSPTSLSASVGDRVTITCRASEGIANNLSWYQQTPGKAPKLLIYATSNLHSGVPSRFSGSGSGTDFTLTISSLQPEDFATYYCQQGFKWPLTFGGGTKLEITRSDAQPSVFLFQPSLDELHTGSASIVCILNDFYPKEVNVKWKVDGVVQNKGIQESTTEQNSKDSTYSLSSTLTMSSTEYQSHEKFSCEVTHKSLASTLVKSFNRSECQRE | 0.0315 | 0.0224 | 712000 |
| IgG with feline IgG1a Fc variant S252Y, I377Y (antibody, Printed '1377Y' read as I377Y; IgG1a constant domain with MALA mutations (M234A, L244A as printed); variable domains from WO 2023/97275; also called S252Y, 1377Y) heavy: DVQLVESGGDLVKPGGSLRLTCVASGLSLTSDSMSWVRQAPGKGLQWVSTLWSNRGTYYTDSVKGRFTISKDNAENTLYLQMNNLKTEDTATYYCASIYYYEADYLHWYFDFWGQGALVTVSSASTTAPSVFPLAPSCGTTSGATVALACLVLGYFPEPVTVSWNSGALTSGVHTFPAVLQASGLYSLSSMVTVPSSRWLSDTFTCNVAHPPSNTKVDKTVRKTDHPPGPKPCDCPKCPPPEAAGGPSIFIFPPKPKDTLYISRTPEVTCLVVDLGPDDSDVQITWFVDNTQVYTAKTSPREEQFNSTYRVVSVLPILHQDWLKGKEFKCKVNSKSLPSPIERTISKAKGQPHEPQVYVLPPAQEELSRNKVSVTCLIKSFHPPDYAVEWEITGQPEPENNYRTTPPQLDSDGTYFVYSKLSVDRSHWQRGNTYTCSVSHEALHSHHTQKSLTQSPG light: EIQMTQSPTSLSASVGDRVTITCRASEGIANNLSWYQQTPGKAPKLLIYATSNLHSGVPSRFSGSGSGTDFTLTISSLQPEDFATYYCQQGFKWPLTFGGGTKLEITRSDAQPSVFLFQPSLDELHTGSASIVCILNDFYPKEVNVKWKVDGVVQNKGIQESTTEQNSKDSTYSLSSTLTMSSTEYQSHEKFSCEVTHKSLASTLVKSFNRSECQRE | 0.0361 | 0.0258 | 716000 |
| IgG with feline IgG1a Fc variant S252Y, R301L (antibody, IgG1a constant domain with MALA mutations (M234A, L244A as printed); variable domains from WO 2023/97275) heavy: DVQLVESGGDLVKPGGSLRLTCVASGLSLTSDSMSWVRQAPGKGLQWVSTLWSNRGTYYTDSVKGRFTISKDNAENTLYLQMNNLKTEDTATYYCASIYYYEADYLHWYFDFWGQGALVTVSSASTTAPSVFPLAPSCGTTSGATVALACLVLGYFPEPVTVSWNSGALTSGVHTFPAVLQASGLYSLSSMVTVPSSRWLSDTFTCNVAHPPSNTKVDKTVRKTDHPPGPKPCDCPKCPPPEAAGGPSIFIFPPKPKDTLYISRTPEVTCLVVDLGPDDSDVQITWFVDNTQVYTAKTSPREEQFNSTYLVVSVLPILHQDWLKGKEFKCKVNSKSLPSPIERTISKAKGQPHEPQVYVLPPAQEELSRNKVSVTCLIKSFHPPDIAVEWEITGQPEPENNYRTTPPQLDSDGTYFVYSKLSVDRSHWQRGNTYTCSVSHEALHSHHTQKSLTQSPG light: EIQMTQSPTSLSASVGDRVTITCRASEGIANNLSWYQQTPGKAPKLLIYATSNLHSGVPSRFSGSGSGTDFTLTISSLQPEDFATYYCQQGFKWPLTFGGGTKLEITRSDAQPSVFLFQPSLDELHTGSASIVCILNDFYPKEVNVKWKVDGVVQNKGIQESTTEQNSKDSTYSLSSTLTMSSTEYQSHEKFSCEVTHKSLASTLVKSFNRSECQRE | 0.0388 | 0.0277 | 714000 |
